Measured values: patent publication US11957762B2, “Immune tolerant and non-immune tolerant elastin-like recombinant peptides and methods of use” (University of Utah Research Foundation, priority 2015, dated 2024)
Several values for one entry are separate records, joined by “and”; a condition that tells them apart may be missing. Identical values can stand only once.

B1: G(…)21GG (protein)
chain: GVPGLGAGAGVPGLGAGAGVPGLGAGAGVPGLGAGAGVPGLGAGAGVPGLGAGAGVPGLGAGAGVPGLGAGAGVPGLGAGAGVPGLGAGAGVPGLGAGAGVPGLGAGAGVPGLGAGAGVPGLGAGAGVPGLGAGAGVPGLGAGAGVPGLGAGAGVPGLGAGAGVPGLGAGAGVPGLGAGAGVPGLGAGAGVPGLGAGAGVPGLGAGAGVPGLGAGAGVPGLGAGAGVPGLGAGAGVPGLGAGAGVPGLGAGAGVPGLGAGAGVPGLGAGAGVPGLGAGAGVPGLGAGAGVPGLGAGAGVPGLGAGAGVPGLGAGAGVPGLGAGAGVPGLGAGAGVPGLGAGAGVPGLGAGAGVPGLGAGAGVPGLGAGAGVPGLGAGAGVPGLGAGAGVPGLGAGAGVPGLGAGAGVPGLGAGAGVPGLGAGAGVPGLGAGAGVPGLGAGAGVPGLGAGAGVPGLGAGAGVPGLGAGAGVPGLGAGAGVPGLGAGAGVPGLGAGAGVPGLGAGAGVPGLGAGAGVPGLGAGAGVPGLGAGAGVPGLGAGAGVPGLGAGAGVPGLGAGAGVPGLGAGAGVPGLGAGAGVPGLGAGAGVPGLGAGAGVPGLGAGAGVPGLGAGAGVPGLGAGAGVPGLGAGAGVPGLGAGAGVPGLGAGAGVPGLGAGAGVPGLGAGAGVPGLGAGAGVPGLGAGAGVPGLGAGAGVPGLGAGAGVPGLGAGAGVPGLGAGAGVPGLGAGAGVPGLGAGAGVPGLGAGAGVPGLGAGAGVPGLGAGAGVPGLGAGAGVPGLGAGAGVPGLGAGAGVPGLGAGAGVPGLGAGAGVPGLGAGAGVPGLGAGAGVPGLGAGAGVPGLGAGAGVPGLGAGAGVPGLGAGAGGG

Columns and labels:
[1] = system: regular 4T1-luc cells; test: Cytotoxicity, regular 4T1-luc cells; type: cell-based, murine; details: Mus musculus; regular 4T1-luc cells, 72 hours; read-out: IC50
Protocol: Cytotoxicity studies. The cytotoxicity was measured as previously described (Zhao, et al; Mol. Pharm, 2014; 11(8):2703-12). The incubation time was 72 hours. 4T1-lu mammosphere cells were generated as the previously described (Zhao, et al; Mol. Pharm, 2014; 11(8):2703-12).

[2] = system: C57BL/6 mice; test: Humoral immunogenicity: IgG titers by ELISA in sera of immunized mice; details: mouse, in vivo
Protocol: Immunization of iTEPs and collection of immune sera. C57BL/6 mice were immunized twice at their right hocks with iTEPs at a dose of 100 μg/mouse. […] At 1 week after the second immunization, 100 μL blood was collected from each immunized mouse. The blood samples were allowed to sit for 30 minutes to one hour at room temperature to clot. Sera were collected from the blood samples after the samples were spun for 10 min at 14,000 rpm at 4° C. The sera were kept at −80° C. before an analysis of the titers of iTEP-specific IgG.
Determination of IgG titers by ELISA. […] Plates were read at OD 450 nm (minus 570 nm for wavelength correction).
The end point titer of a serum IgG was defined as the reciprocal of the higher serum dilution which OD value from the ELISA assay is higher than a statistically valid cutoff. The titer results were expressed as IgG titers (Log 10) for each sample. […] The value of the cutoff was calculated using the following equation:^(31) Cutoff=X+SD t√{square root over (1+(1/n))} where X is the mean absorbance readings of independent PBS control sera, SD is the standard deviation of the readings, n is the number of independent PBS controls (mouse samples), t is the (1−α)th percentile of the one-tailed t-distribution with v=n−1 degrees of freedom.

[3] = Thermally-induced reversible phase transition (turbidity OD350 vs temperature); type: physicochemical
Source text: Characterization of thermally-induced, reversible, inverse phase transition of iTEPs and the iTEPB-iTEPA-pOVA fusion. The phase transitions of iTEP or iTEP fusions were characterized by turbidity changes of sample solutions as a function of temperature. Specifically, the optical density at 350 nm (OD350) of a sample solution was monitored using an UV-visible spectrophotometer equipped with a multi-cell thermoelectric temperature controller (Cary 300, Varian Instruments, Walnut Creek, CA) while the solution was heated from 20° C. to 80° C. and then cooled to 20° C. at a rate of 1° C./min. The maximum first derivative of the turbidity curve of a sample was identified. The transition temperature (Tt) of the sample is the temperature that corresponds to the maximum derivative.

Molecule	IC50 [1] [nM]	humoral immunogenicity [2]	Relative Hydrophobicity [3]	(heating) Tt ([3]; 5 μM) [°C]	Tt (cooling) ([3]; 25 μM in H2O) [°C]	Tt (heating) ([3]; 25 μM in H2O)
CC(=O)O[C@H]1C(=O)[C@@]2(C)[C@H]([C@H](OC(=O)c3ccccc3)[C@]3(O)C[C@H](OC(=O)[C@H](O)[C@@H](NC(=O)c4ccccc4)c4ccccc4)C(C)=C1C3(C)C)[C@]1(OC(C)=O)CO[C@@H]1C[C@@H]2O [PTX, paclitaxel, reference compound]	6.3	–	–	–	–	–
B1	–	did not show different immunogenicity	High	50.5	34.00 ± 0.58	35.7 °C and 35.70 ± 0.58 °C
